The assay has as its target human TNFR1 on the cellular surface of HeLa, HT1080 and Kym-1 cells (human) (UniProt P19438). The experiment in a line: cell-based or functional assay.

human TNFR1 on the cellular surface of HeLa, HT1080 and Kym-1 cells (human), sequence (P19438 30-455 limits assumed): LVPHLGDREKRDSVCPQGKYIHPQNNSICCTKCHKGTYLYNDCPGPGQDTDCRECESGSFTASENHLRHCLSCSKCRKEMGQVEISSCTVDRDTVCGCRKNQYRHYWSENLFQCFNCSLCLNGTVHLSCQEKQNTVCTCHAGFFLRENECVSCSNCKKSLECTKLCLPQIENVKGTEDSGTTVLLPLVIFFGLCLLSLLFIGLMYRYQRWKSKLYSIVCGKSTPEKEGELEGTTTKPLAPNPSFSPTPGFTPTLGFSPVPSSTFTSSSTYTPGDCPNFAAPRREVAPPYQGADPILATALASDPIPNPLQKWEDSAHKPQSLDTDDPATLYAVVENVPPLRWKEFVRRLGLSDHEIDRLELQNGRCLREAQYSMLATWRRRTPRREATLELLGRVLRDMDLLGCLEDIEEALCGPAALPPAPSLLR

ATROSAB (antibody) displayed an IC50, Cell death induction [nM] (Kym-1 cells, TNF-induced) of 64.4 nM; an IC50, IL-6 [nM] (IL-6 release from HeLa cells, 0.1 nM TNF) of 165 nM; an IC50, IL-8 [nM] (IL-8 release from HT1080 cells, 0.1 nM TNF) of 84.1 nM.

The values are drawn from patent US20200299396A1.
